Test results taken from patent US20250375505A1, “COMPOSITIONS AND METHODS FOR MODIFYING BILE ACIDS TO REGULATE LIPID AND STEROID METABOLISM” (The Regents of the University of California, priority 2021, published 2025).

Key:
[1] = tested on: tauro- (TCA, TCDCA) or glyco- (GCA, GCDCA) bile acids; experiment: Deconjugation by E. coli C41-pLys expressing putative Turicibacter bsh genes (LC-MS); type: cell-based
Experimental: Control is E. coli with same expression vector but expressing non-bile-modifying gene. d, same as c, but with GCA and GCDCA instead of tauro-bile acids. e, Quantification of percent remaining (compared to media controls) of conjugated bile acid (TCA, TCDCA, GCA, GCDCA) after 24 h growth with E. coli expressing the noted Turicibacter bsh gene. n=3 independent cultures, *p<0.05, **p<0.005, ***p<0.0005 using one sample t-test comparison with 100% remaining. BSH nomenclature indicates homolog group (e.g. III) and isolate of origin (e.g. MOL361).
Conjugation increases bile acid solubility and emulsification ability^45, while deconjugation reverses these effects, leading to decreased dietary lipid absorption. To identify Turicibacter bile salt hydrolase (bsh) genes responsible for the strain-specific differences in bile deconjugation, the study first searched our assembled genomes for annotations of “choloylglycine hydrolase,” the broad category that includes these genes. […] Isolates within the same phylogenetic and phenotypic subgroups largely shared similar sequences (FIG. 11a, b). To assay the function of the strain-specific putative bsh genes, the study cloned and individually expressed one representative sequence from each of the eight putative choloylglycine hydrolase groups in E. coli C41-pLys and measured the ability of these engineered bacteria to perform the deconjugations the study observed in the native Turicibacter. The study cultured the individual E. coli strains to stationary phase in the presence of two tauro-(TCA, TCDCA) or glyco-(GCA, GCDCA) bile acids, then measured their ability to deconjugate these bile acid pools. […] Collectively, these findings reveal that Turicibacter strains contain a range of bile salt hydrolases with deconjugation preferences for different bile acids.
For bile species quantification, an internal spike-in standard of 100 mM chenodeoxycholic acid-D4 (CDCA-D4, Sigma) was added to initial culture supernatants as a normalization reference. Area under the curve from reconstructed ion chromatograms was used to quantify the abundances of each species.

CA, CDCA, and DCA = settings: expressed in E. coli C41-pLys
Experimental: Escherichia coli C41-pLys (Lucigen) was used for characterizing putative bile modification genes, which were expressed off the pET21+plasmid. E. coli was grown acrobically shaking at 37° C. C in Luria Broth (LB, 1% NaCl, 1% tryptone, 0.5% yeast extract) supplemented with 100 μg mL^−1 ampicillin. Expression of genes was induced by addition of 100 μM IPTG.
In vitro characterization of bile transformations by engineered E. coli or B. thetaiotaomicron strains were performed by growing cells in respective media conditions described above supplemented with 0.5 mM (total combined concentration) of the noted bile species. Cells were grown to stationary phase (shaking at 37° C.), then frozen at −80° C. until further processing. Cells were then thawed, pelleted (5 minutes at 16,000×g), and the supernatant was removed to a new microcentrifuge tube. Three volumes of methanol was added, then the mixture was vigorously mixed for 30-60 seconds and incubated (room temperature, 15 minutes). Mixtures were centrifuged (5 minutes, 16,000×g), the supernatant removed to a clean microcentrifuge tube and dried in a vacuum concentrator. The dried residue was treated with methanol/water/formic acid (50/50/0.1, all by volume) then vigorously mixed and centrifuged as described above. […] The effluent from the column was passed through an electrospray ion source (capillary voltage 42V, capillary temperature 275° C., sheath gas flow 15 L min^−1, spray voltage 5 kV, and −15 kV conversion dynode with −1.2 k V multipliers) connected to a linear ion trap mass spectrometer (Thermo LTQ) scanning from m/z 95-1000 in the positive ion mode. Spectra were recorded and analyzed with instrument-manufacturer supplied software. Confirmation of proposed elemental compositions was achieved using the same chromatography and ion source configuration with the spectra recorded by scanning on an orbitrap mass spectrometer (Thermo LTQ XL).

[2] = expressed in E. coli C41-pLys, grown with two tauro- (TCA, TCDCA) or glyco- (GCA, GCDCA) bile acids

Molecule | bile salt hydrolase (deconjugation) activity [1, 2] | also measured
BSH (group IV): bile salt hydrolase group IV from Turicibacter sanguinis MOL361, SEQ ID NO: 4 (protein, listed as Turicibacter sanguinis) MCTALSLTAKDGSHLFGRNMDIEYSFNQSILLTPRRFDYKNRATGEMNQTKYAIIGMGTIIDEHPCYAELFNEKGLAAAGLNFPNYAHWDEKAIEGKTNIPPYDLVLWVTSNFETVKEVKEALKDVVLVDVPVNEQTPIAPLHWMICDKTGESIVVEKTVNGLSVMDNKVGVLTNAPTFDWHLTNLTQYMGLTSTQPKDITLGEQELHPLGQGLGAFSLPGDYSSPSRFVKAAFLRNNIDYANVNYSGISEFFHILNGVAMVRGSVVTPQHLNDITLYTSCMDQERGIYYYNTYTNHTISSINMHNEDLDAKEIKSFKFNDEFAVNLQN | tauro-specific | –
BSH (group II): bile salt hydrolase group II from Turicibacter sanguinis H121, SEQ ID NO: 2 (protein, listed as Turicibacter sanguinis) MCTGLSLTTKDGKHFFGRNLDVPASYGQSVHIIPRNFNWLNVVNGETLASKYACIGMGIVVDNHPLLFDAVNEKGLAGGGLNFTHFAKFNENAIDGKINISASDFVYWALSNFADLNELRQALENLVLTNIPFEHELPVAGLHWMFTDLSGRSIVIENMADGMHIHENPVGVLTNDPTFDWHLTNLRQYVTLEKATPAPKQMGDLLLHPYGHGLGMCGIPGDASPAARFVRTVFFRDSIVEANDEISGVTAFLNVLTGVTVIKGSEVDPDGSMNYTVYKSAMCQESGTYYYTDYYNRRINAVKLSNANLDSKEITSFPYQGEQDILFQN | activity on TCDCA and GCDCA | bile salt hydrolase (deconjugation) activity ([1]; expressed in E. coli, presented with the combined four bile acids): blunted
BSH (group I): bile salt hydrolase group I from Turicibacter sanguinis MOL361, SEQ ID NO: 1 (protein, listed as Turicibacter sanguinis) MCTGLSLVTKDNKHLFGRNLDVPATYGQAVHIVPRNYDWFNIVSDETYTSKYACIGMGIVVDRLPLLFDAVNEKGLAGAGLNFTHFAKFNEKAVDGKTNISGSTFLYWALSNFSNLDELKEALKQLIITNIPVKEGLPVAGLHWMFTDLSGKSIVIEYMEDGMHVYDNPVGALTNDPTFPWHLTNLCQYVTLDTKTPAPKQFGEYVAKPFGHGLNMCGIPGDASPAARFVRTVYFRDTVVEADDEVSGVSAFFQVLTGVTVIKGSEIDPNGDMNYTVYKSCMCQESGTYYYTDYKNRRISAVCLSKADLDGKEIISFEYQGKQDILFQN | deconjugates both glyco- and tauro-conjugates | –
7α-HSDH homolog from MOL361: 7-alpha hydroxysteroid dehydrogenase homolog of MOL361, locus tag HLK68_RS02750, SEQ ID NO: 9, expressed in E. coli C41-pLys (protein, listed as Turicibacter sanguinis) MRKLENAIALVTSSTRGIGLACAKKLASEGAIVYMGVRRLEVTQEICDEVAKEGLKMKPVFFDAYNIDSYETMVEEVIREQGKIDILVNNFGTGRPEVDLDLVSGDEKAFFDILEANIGSVYRISKLVIPHMIKQGKGSIVNISSIGGTVPDISRIGYGVSKAGVNNITQQIAMQYARYNIRCNAVLPGLTATDAALDNMPEQFIKSFLSHVPLNRMGTPEDMANAVLFFASDDSSYVTGDIMEVSGGYHLGTPQYADFVGRKVVEEK | – | dehydrogenation of CA (CA, CDCA, and DCA; grown in CA): removed the mass equivalent of two hydrogens from CA; dehydrogenation of CDCA (CA, CDCA, and DCA; grown in CDCA): Background transformation by E. coli prevented clear evidence of CDCA dehydrogenation; dehydrogenation of DCA (CA, CDCA, and DCA; grown in DCA): did not act on DCA
BSH (group III): bile salt hydrolase group III from Turicibacter sanguinis 1E2, SEQ ID NO: 3 (protein, listed as Turicibacter sanguinis) MCTGLCLSTKDGKHLFGRNLDVPASYNQAVQIVPRNFKWLNVATQETITSKYACIAMGIVIDNHPLLFDGVNEKGLAGGGLNFTHFAKFSSTAVKDKISLSASDFVYWVLSTFSSLSELKETLPSVILTSIPFKPDLPVAGLHWIFTDKTGESIVIEYMEDGMHIHDNPVGVLTNDPTFDWQLTNLSQYVTLSCKTPQPEEMGNLLVKPFGHGLGMCGIPGDGSPAARFVRTVFFRDAVVGADDEISGVTAFFNVLSEVTVMKGSEIDPDGSMNFTVYKSAMCQESQTYYYTDYYNRRINAVKLTPDTMNADHITTFPYLGKQDICYQN | moderate activity on TCDCA | –
